{"source": "patent WO2017179718A1", "about": "(dated 2017)", "binders": {"B1": {"name": "m22-AF647 antibody (antibody, human IgG4, V domains shown)", "VH": "QVQLVESGGGVVQPGRSLRLSCSSSGFIFSDNYMYWVRQAPGKGLEWVATISDGGSYTYYPDSVKGRFTISRDNSKNTLFLQMDSLRPEDTGVYFCARGYYRYEGAMDYWGQGTPVTVSS", "VL": "DIQLTQSPSSLSASVGDRVTITCKSSQSVLYSSNQKNYLAWYQQKPGKAPKLLIYWASTRESGVPSRFSGSGSGTDFTFTISSLQPEDIATYYCHQYLSSWTFGQGTKLEIK", "modifications": "Alexa Fluor 647 label on the antibody (sites not given)", "notes": "kappa) fluorescently labelled with Alexa Fluor 647"}}, "target": "T1, human CD64 (human, UniProt P12314 16-374)", "T1 construct": "also called hCD64; FcγRIA", "T1 sequence (P12314 16-374 limits assumed)": "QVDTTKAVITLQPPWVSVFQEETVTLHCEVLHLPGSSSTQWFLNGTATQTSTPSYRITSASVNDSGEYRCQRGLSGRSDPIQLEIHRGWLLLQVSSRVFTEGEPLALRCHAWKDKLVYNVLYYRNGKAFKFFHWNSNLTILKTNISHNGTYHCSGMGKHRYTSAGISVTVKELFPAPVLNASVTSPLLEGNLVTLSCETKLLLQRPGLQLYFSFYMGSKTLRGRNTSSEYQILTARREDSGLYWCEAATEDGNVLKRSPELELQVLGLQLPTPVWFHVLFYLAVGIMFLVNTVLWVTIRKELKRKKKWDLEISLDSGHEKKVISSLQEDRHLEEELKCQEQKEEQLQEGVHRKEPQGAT", "assay": "flow cytometry on CHO-S-hCD64 and THP-1 cells", "data": [{"binder": "B1", "values": [{"measurement": "binding result", "value": "binds"}]}]}
